Measurements from patent US20230295310A1 (ABCELLERA BIOLOGICS, published 2023).

B1: GOMP001_bsAb_023 (bispecific antibody, human IgG1, kappa, L234A L235A)
heavy 1: QVQLVQSGAEVKKPGASVKVSCKASGYTFTSHWMHWVRKAPGQGLEWIGEFNPSNGRTNYNEEFKSKATMTVDTSTNTAYMELSSLRSEDTAVYYCASRDYDYDGRYFDYWGQGTLVTVSSASTKGPSVFPLAPSSKSTSGGTAALGCLVADYFPEPVTVSWNSGALTSGVHTFPAVLQSSGLYSLSSVVTVPSSSLGTQTYICNVNHKPSNTKVDEKVEPKSCDKTHTCPPCPAPEAAGGPSVFLFPPKPKDTLMISRTPEVTCVVVDVSHEDPEVKFNWYVDGVEVHNAKTKPREEQYNSTYRVVSVLTVLHQDWLNGKEYKCKVSNKALPAPIEKTISKAKGQPREPQVYTLPPSREEMTDNQVSLTCLVKGFYPSDIAVEWESNGQPENNYKTTPPVLMSDGSFFLASKLTVDKSRWQQGNVFSCSVMHEALHNHYTQKSLSLSPG
light 1: RIQMTQSPSSLSASVGDRVTITCSASSSVTYMYWYQDKPGKAPKLLIYDTSNLASGVPSRFSGSGSGTDYTFTISSLQPEDIATYYCQQWSSHIFTFGQGTKVEIKRTVAAPSVFIFPPSDKQLKSGTARVVCLLNNFYPREAKVQWKVDNALQSGNSQESVTEQDSKDSTYSLSSTLTLSKADYEKHKVYACEVTHQGLSSPVTKSFNRGEC
heavy 2: QGQLVESGGGVVQPGRSLRLSCEASGFTFRSYGMHWVRYPPGKGLEWVAIIWYDGGKKYYGDRVKGRFTISRDNPKNTLYLQMNSLRPEDTAVYYCMAYDYSNGFDIWGRGTMVTVSSASTKGPSVFPLAPSSKSTSGGTAALGCLVKDYFPEPVTVSWNSGALTSGVHTFPAVLQSSGLYSLSSVVTVPSSSLGTQTYICNVNHKPSNTKVDKKVEPKSCDKTHTCPPCPAPEAAGGPSVFLFPPKPKDTLMISRTPEVTCVVVDVSHEDPEVKFNWYVDGVEVHNAKTKPREEQYNSTYRVVSVLTVLHQDWLNGKEYKCKVSNKALPAPIEKTISKAKGQPRRPRVYTLPPSREEMTKNQVSLVCLVKGFYPSDIAVEWESNGQPENNYKTTPPVLDSDGSFFLYSVLTVDKSRWQQGNVFSCSVMHEALHNHYTQKSLSLSPG
light 2: DIVMTQTPLSSPVTLGQPASISCRSSQSFVHSDGSTYLSWLQRRPGDPPRLLIYKISNRFSGVPDRFSGRGAGTDFTLKISRVEAEDVGIYYCMQNTQFPYTFGQGTKLEIKRTVAAPSVFIFPPSDEQLKSGTASVVCLLNNFYPREAKVQWKVDNALQSGNSQESVTEQDSKDSTYSLSSTLTLSKADYEKHKVYACEVTHQGLSSPVTKSFNRGEC
B2: GOMP001_bsAb_029 (bispecific antibody, human IgG1, kappa, L234A L235A)
heavy 1: QVQLVQSGAEVKKPGASVKVSCKASGYTFTSHWMHWVRKAPGQGLEWIGEFNPSNGRTNYNEEFKSKATMTVDTSTNTAYMELSSLRSEDTAVYYCASRDYDYDGRYFDYWGQGTLVTVSSASTKGPSVFPLAPSSKSTSGGTAALGCLVADYFPEPVTVSWNSGALTSGVHTFPAVLQSSGLYSLSSVVTVPSSSLGTQTYICNVNHKPSNTKVDEKVEPKSCDKTHTCPPCPAPEAAGGPSVFLFPPKPKDTLMISRTPEVTCVVVDVSHEDPEVKFNWYVDGVEVHNAKTKPREEQYNSTYRVVSVLTVLHQDWLNGKEYKCKVSNKALPAPIEKTISKAKGQPREPQVYTLPPSREEMTDNQVSLTCLVKGFYPSDIAVEWESNGQPENNYKTTPPVLMSDGSFFLASKLTVDKSRWQQGNVFSCSVMHEALHNHYTQKSLSLSPG
light 1: RIQMTQSPSSLSASVGDRVTITCSASSSVTYMYWYQDKPGKAPKLLIYDTSNLASGVPSRFSGSGSGTDYTFTISSLQPEDIATYYCQQWSSHIFTFGQGTKVEIKRTVAAPSVFIFPPSDKQLKSGTARVVCLLNNFYPREAKVQWKVDNALQSGNSQESVTEQDSKDSTYSLSSTLTLSKADYEKHKVYACEVTHQGLSSPVTKSFNRGEC
heavy 2: QVQLVQSGAEVKKPGASVKVSCKASGYTVTGYYMHWVRYAPGQGLEWMGWINPNSGGTNFAQRFQGRVTMTRDTSISTFYMDLNRLRSDDTAVYYCARGGAPVSYWFFDLWGRGTLVTVSSASTKGPSVFPLAPSSKSTSGGTAALGCLVKDYFPEPVTVSWNSGALTSGVHTFPAVLQSSGLYSLSSVVTVPSSSLGTQTYICNVNHKPSNTKVDKKVEPKSCDKTHTCPPCPAPEAAGGPSVFLFPPKPKDTLMISRTPEVTCVVVDVSHEDPEVKFNWYVDGVEVHNAKTKPREEQYNSTYRVVSVLTVLHQDWLNGKEYKCKVSNKALPAPIEKTISKAKGQPRRPRVYTLPPSREEMTKNQVSLVCLVKGFYPSDIAVEWESNGQPENNYKTTPPVLDSDGSFFLYSVLTVDKSRWQQGNVFSCSVMHEALHNHYTQKSLSLSPG
light 2: DIQMTQSPSSLSASVGDRVTITCRASQSISRYLNWYQRKPGDAPKVLIYNTSSLKSGVPSRFSGSGSGTDFTLTISSLQPEDFGTFYCQQSHSTPFTFGPGTKVDIKRTVAAPSVFIFPPSDEQLKSGTASVVCLLNNFYPREAKVQWKVDNALQSGNSQESVTEQDSKDSTYSLSSTLTLSKADYEKHKVYACEVTHQGLSSPVTKSFNRGEC
B3: GOMP001_bsAb_024 (bispecific antibody, human IgG1, kappa, L234A L235A)
heavy 1: QGQLVESGGGVVQPGRSLRLSCEASGFTFRSYGMHWVRKPPGKGLEWVAIIWYDGGKKYYGDEVKGRFTISRDNPKNTLYLQMNSLRPEDTAVYYCMAYDYSNGFDIWGQGTMVTVSSASTKGPSVFPLAPSSKSTSGGTAALGCLVADYFPEPVTVSWNSGALTSGVHTFPAVLQSSGLYSLSSVVTVPSSSLGTQTYICNVNHKPSNTKVDEKVEPKSCDKTHTCPPCPAPEAAGGPSVFLFPPKPKDTLMISRTPEVTCVVVDVSHEDPEVKFNWYVDGVEVHNAKTKPREEQYNSTYRVVSVLTVLHQDWLNGKEYKCKVSNKALPAPIEKTISKAKGQPREPQVYTLPPSREEMTDNQVSLTCLVKGFYPSDIAVEWESNGQPENNYKTTPPVLMSDGSFFLASKLTVDKSRWQQGNVFSCSVMHEALHNHYTQKSLSLSPG
light 1: RIVMTQTPLSSPVTLGQPASISCRSSQSFVHSDGSTYLSWLQDRPGQPPRLLIYKISNRFSGVPDRFSGRGAGTDFTLKISRVEAEDVGIYYCMQNTQFPYTFGQGTKLEIKRTVAAPSVFIFPPSDKQLKSGTARVVCLLNNFYPREAKVQWKVDNALQSGNSQESVTEQDSKDSTYSLSSTLTLSKADYEKHKVYACEVTHQGLSSPVTKSFNRGEC
heavy 2: QVQLVQSGAEVKKPGASVKVSCKASGYTFTSHWMHWVRYAPGQGLEWIGEFNPSNGRTNYNEKFKSKATMTVDTSTNTAYMELSSLRSEDTAVYYCASRDYDYDGRYFDYWGRGTLVTVSSASTKGPSVFPLAPSSKSTSGGTAALGCLVKDYFPEPVTVSWNSGALTSGVHTFPAVLQSSGLYSLSSVVTVPSSSLGTQTYICNVNHKPSNTKVDKKVEPKSCDKTHTCPPCPAPEAAGGPSVFLFPPKPKDTLMISRTPEVTCVVVDVSHEDPEVKFNWYVDGVEVHNAKTKPREEQYNSTYRVVSVLTVLHQDWLNGKEYKCKVSNKALPAPIEKTISKAKGQPRRPRVYTLPPSREEMTKNQVSLVCLVKGFYPSDIAVEWESNGQPENNYKTTPPVLDSDGSFFLYSVLTVDKSRWQQGNVFSCSVMHEALHNHYTQKSLSLSPG
light 2: DIQMTQSPSSLSASVGDRVTITCSASSSVTYMYWYQRKPGDAPKLLIYDTSNLASGVPSRFSGSGSGTDYTFTISSLQPEDIATYYCQQWSSHIFTFGQGTKVEIKRTVAAPSVFIFPPSDEQLKSGTASVVCLLNNFYPREAKVQWKVDNALQSGNSQESVTEQDSKDSTYSLSSTLTLSKADYEKHKVYACEVTHQGLSSPVTKSFNRGEC
B4: GOMP001_bsAb_030 (bispecific antibody, human IgG1, kappa, L234A L235A)
heavy 1: QVQLVQSGAEVKKPGASVKVSCKASGYTVTGYYMHWVRKAPGQGLEWMGWINPNSGGTNFAQEFQGRVTMTRDTSISTFYMDLNRLRSDDTAVYYCARGGAPVSYWFFDLWGRGTLVTVSSASTKGPSVFPLAPSSKSTSGGTAALGCLVADYFPEPVTVSWNSGALTSGVHTFPAVLQSSGLYSLSSVVTVPSSSLGTQTYICNVNHKPSNTKVDEKVEPKSCDKTHTCPPCPAPEAAGGPSVFLFPPKPKDTLMISRTPEVTCVVVDVSHEDPEVKFNWYVDGVEVHNAKTKPREEQYNSTYRVVSVLTVLHQDWLNGKEYKCKVSNKALPAPIEKTISKAKGQPREPQVYTLPPSREEMTDNQVSLTCLVKGFYPSDIAVEWESNGQPENNYKTTPPVLMSDGSFFLASKLTVDKSRWQQGNVFSCSVMHEALHNHYTQKSLSLSPG
light 1: RIQMTQSPSSLSASVGDRVTITCRASQSISRYLNWYQDKPGKAPKVLIYNTSSLKSGVPSRFSGSGSGTDFTLTISSLQPEDFGTFYCQQSHSTPFTFGPGTKVDIKRTVAAPSVFIFPPSDKQLKSGTARVVCLLNNFYPREAKVQWKVDNALQSGNSQESVTEQDSKDSTYSLSSTLTLSKADYEKHKVYACEVTHQGLSSPVTKSFNRGEC
heavy 2: QVQLVQSGAEVKKPGASVKVSCKASGYTFTSHWMHWVRYAPGQGLEWIGEFNPSNGRTNYNEKFKSKATMTVDTSTNTAYMELSSLRSEDTAVYYCASRDYDYDGRYFDYWGRGTLVTVSSASTKGPSVFPLAPSSKSTSGGTAALGCLVKDYFPEPVTVSWNSGALTSGVHTFPAVLQSSGLYSLSSVVTVPSSSLGTQTYICNVNHKPSNTKVDKKVEPKSCDKTHTCPPCPAPEAAGGPSVFLFPPKPKDTLMISRTPEVTCVVVDVSHEDPEVKFNWYVDGVEVHNAKTKPREEQYNSTYRVVSVLTVLHQDWLNGKEYKCKVSNKALPAPIEKTISKAKGQPRRPRVYTLPPSREEMTKNQVSLVCLVKGFYPSDIAVEWESNGQPENNYKTTPPVLDSDGSFFLYSVLTVDKSRWQQGNVFSCSVMHEALHNHYTQKSLSLSPG
light 2: DIQMTQSPSSLSASVGDRVTITCSASSSVTYMYWYQRKPGDAPKLLIYDTSNLASGVPSRFSGSGSGTDYTFTISSLQPEDIATYYCQQWSSHIFTFGQGTKVEIKRTVAAPSVFIFPPSDEQLKSGTASVVCLLNNFYPREAKVQWKVDNALQSGNSQESVTEQDSKDSTYSLSSTLTLSKADYEKHKVYACEVTHQGLSSPVTKSFNRGEC

Target: EGFR on HeLa cells (UniProt P00533 25-1210, limits assumed)
Assay: cell-based or functional assay

Point of comparison: B4, Max killing % 92.6%. Against it:
- B1 — lower, 27.5%
- B2 — lower, 81.1%
- B3 — lower, 72.5%

Point of comparison: B2, “X… HeLa EC50” value 0.136 nM. Against it:
- B3 — 6.6-fold higher, 0.895 nM
- B4 — 3-fold lower, 0.0454 nM
